Experimental data from patent US20240383958A1, “APELIN RECEPTOR AGONISTS AND USES THEREOF” (VISTERRA, INC., priority 2023, published 2024).

Key:
APJ-eGFP fusion protein = assay: Internalization assay, CHO-M1 cells expressing APJ-eGFP, high-content imaging; format: cell-based; set-up: key: 0: No Internalization; >1000; 2: 100-1000; 3: 10-100; 4: <10; details: lowest concentration at which maximum internalization was observed; 0.914 nM to 2000 nM
Experimental: In this example, the internalization of exemplary apelin receptor agonist was assessed. CHO-M1 cells expressing an APJ-eGFP fusion protein were stained and plated in a 96-well plate. Apelin receptor agonists were serially diluted and added to the wells at concentrations ranging from 0.914 nM to 2000 nM. The cells were later imaged using an Operetta CLS™ high-content analysis system. APJ-eGFP signal was measured in the membrane and cytoplasmic region, and the ratio of membrane signal to total signal was calculated (E ratio). An internalization score was assigned based on the lowest concentration of the compound at which maximum internalization was observed. The internalization score for each apelin receptor agonist was plotted against the EC50 values for cAMP signaling and beta-arrestin signaling as shown in FIG. 2 and FIG. 3.

[1] = Proteolysis during production detected using mass spectroscopy; format: physicochemical; details: proteolytic stability
Description: Proteolysis during production was detected using mass spectroscopy, which provides insights into the proteolytic stability of the apelin receptor agonists.

[2] = molecular target: T1, APJ-eGFP fusion protein on CHO-M1 cells (UniProt P35414 1-380); assay: cell-based or functional assay
T1 sequence (looked up): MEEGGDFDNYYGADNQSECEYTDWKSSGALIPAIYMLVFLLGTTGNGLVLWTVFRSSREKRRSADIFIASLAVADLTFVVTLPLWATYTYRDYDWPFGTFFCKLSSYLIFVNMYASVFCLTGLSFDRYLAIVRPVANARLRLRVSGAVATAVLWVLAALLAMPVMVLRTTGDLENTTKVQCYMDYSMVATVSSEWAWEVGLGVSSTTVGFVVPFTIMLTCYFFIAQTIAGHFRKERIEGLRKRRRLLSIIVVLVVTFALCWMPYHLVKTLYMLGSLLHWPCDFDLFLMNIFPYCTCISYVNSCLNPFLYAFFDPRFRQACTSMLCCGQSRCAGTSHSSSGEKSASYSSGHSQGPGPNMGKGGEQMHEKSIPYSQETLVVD

Molecule | Internalization Score (APJ-eGFP fusion protein) | Proteolysis During Production? [1] | Internalization Score [2]
APL-H: Leader-Fc-linker fusion of apelin analogue QRPRLSHKGPMHW (P12H, F13W) (protein) MRAWIFFLLCLAGRALADKTHTSPPSPAPEAAGGPSVFLFPPKPKDTLMISRTPEVTCVVVDVSHEDPEVKFNWYVDGVEVHNAKTKPREEQYNSTYRVVSVLTVLHQDWLNGKEYKCKVSNKALPAPIEKTISKAKGQPREPQVYTLPPSREEMTKNQVNLTCLVKGFYPSDIAVEWESNGQPENNYKTTPPVLDSDGSFFLNSTLTVDKSRWQQGNVFSCSVMHEALHNHYTQKSLSLSPGKGGGGSGGGGSGGGGSQRPRLSHKGPMHW | 0 | No | –
APL-A: Monovalent IgG1 Fc fused via GGGGSGGGGSGGGGS linker to wild-type apelin-13 QRPRLSHKGPMPF (protein) MRAWIFFLLCLAGRALADKTHTSPPSPAPEAAGGPSVFLFPPKPKDTLMISRTPEVTCVVVDVSHEDPEVKFNWYVDGVEVHNAKTKPREEQYNSTYRVVSVLTVLHQDWLNGKEYKCKVSNKALPAPIEKTISKAKGQPREPQVYTLPPSREEMTKNQVNLTCLVKGFYPSDIAVEWESNGQPENNYKTTPPVLDSDGSFFLNSTLTVDKSRWQQGNVFSCSVMHEALHNHYTQKSLSLSPGKGGGGSGGGGSGGGGSQRPRLSHKGPMPF | 2 (100-1000) | Yes | –
APL-L: Leader-Fc-linker fusion of apelin analogue QRPRLQHKNPMAW (S6Q, G9N, P12A, F13W) (protein) MRAWIFFLLCLAGRALADKTHTSPPSPAPEAAGGPSVFLFPPKPKDTLMISRTPEVTCVVVDVSHEDPEVKFNWYVDGVEVHNAKTKPREEQYNSTYRVVSVLTVLHQDWLNGKEYKCKVSNKALPAPIEKTISKAKGQPREPQVYTLPPSREEMTKNQVNLTCLVKGFYPSDIAVEWESNGQPENNYKTTPPVLDSDGSFFLNSTLTVDKSRWQQGNVFSCSVMHEALHNHYTQKSLSLSPGKGGGGSGGGGSGGGGSQRPRLQHKNPMAW | 0 | No | –
APL-J: Leader-Fc-linker fusion of apelin analogue QRPRLSHKGPAAY (M11A, P12A, F13Y) (protein) MRAWIFFLLCLAGRALADKTHTSPPSPAPEAAGGPSVFLFPPKPKDTLMISRTPEVTCVVVDVSHEDPEVKFNWYVDGVEVHNAKTKPREEQYNSTYRVVSVLTVLHQDWLNGKEYKCKVSNKALPAPIEKTISKAKGQPREPQVYTLPPSREEMTKNQVNLTCLVKGFYPSDIAVEWESNGQPENNYKTTPPVLDSDGSFFLNSTLTVDKSRWQQGNVFSCSVMHEALHNHYTQKSLSLSPGKGGGGSGGGGSGGGGSQRPRLSHKGPAAY | 1 (>1000) | No | –
APL-I: Leader-Fc-linker fusion of apelin analogue QRPRLSHKGPAAW (M11A, P12A, F13W) (protein) MRAWIFFLLCLAGRALADKTHTSPPSPAPEAAGGPSVFLFPPKPKDTLMISRTPEVTCVVVDVSHEDPEVKFNWYVDGVEVHNAKTKPREEQYNSTYRVVSVLTVLHQDWLNGKEYKCKVSNKALPAPIEKTISKAKGQPREPQVYTLPPSREEMTKNQVNLTCLVKGFYPSDIAVEWESNGQPENNYKTTPPVLDSDGSFFLNSTLTVDKSRWQQGNVFSCSVMHEALHNHYTQKSLSLSPGKGGGGSGGGGSGGGGSQRPRLSHKGPAAW | 1 (>1000) | No | –
APL-K: Leader-Fc-linker fusion of apelin analogue QRPRLQHKNPMAF (S6Q, G9N, P12A) (protein) MRAWIFFLLCLAGRALADKTHTSPPSPAPEAAGGPSVFLFPPKPKDTLMISRTPEVTCVVVDVSHEDPEVKFNWYVDGVEVHNAKTKPREEQYNSTYRVVSVLTVLHQDWLNGKEYKCKVSNKALPAPIEKTISKAKGQPREPQVYTLPPSREEMTKNQVNLTCLVKGFYPSDIAVEWESNGQPENNYKTTPPVLDSDGSFFLNSTLTVDKSRWQQGNVFSCSVMHEALHNHYTQKSLSLSPGKGGGGSGGGGSGGGGSQRPRLQHKNPMAF | 0 | No | –
APL-M: Leader-Fc-linker fusion of apelin analogue QRPRLSHWGPMAW (K8W, P12A, F13W) (protein) MRAWIFFLLCLAGRALADKTHTSPPSPAPEAAGGPSVFLFPPKPKDTLMISRTPEVTCVVVDVSHEDPEVKFNWYVDGVEVHNAKTKPREEQYNSTYRVVSVLTVLHQDWLNGKEYKCKVSNKALPAPIEKTISKAKGQPREPQVYTLPPSREEMTKNQVNLTCLVKGFYPSDIAVEWESNGQPENNYKTTPPVLDSDGSFFLNSTLTVDKSRWQQGNVFSCSVMHEALHNHYTQKSLSLSPGKGGGGSGGGGSGGGGSQRPRLSHWGPMAW | 0 | No | –
ELA-H: Fc-linker fusion of elabela analogue KLRKHNCLQRRCMPYHSRVPFP (L15Y) (protein) MRAWIFFLLCLAGRALADKTHTSPPSPAPEAAGGPSVFLFPPKPKDTLMISRTPEVTCVVVDVSHEDPEVKFNWYVDGVEVHNAKTKPREEQYNSTYRVVSVLTVLHQDWLNGKEYKCKVSNKALPAPIEKTISKAKGQPREPQVYTLPPSREEMTKNQVNLTCLVKGFYPSDIAVEWESNGQPENNYKTTPPVLDSDGSFFLNSTLTVDKSRWQQGNVFSCSVMHEALHNHYTQKSLSLSPGKGGGGSGGGGSGGGGSKLRKHNCLQRRCMPYHSRVPFP | 2 (100-1000) | No | –
ELA-K: Fc-linker fusion of elabela analogue KLRKHNCLIRRCMPLHSRVPFP (Q9I) (protein) MRAWIFFLLCLAGRALADKTHTSPPSPAPEAAGGPSVFLFPPKPKDTLMISRTPEVTCVVVDVSHEDPEVKFNWYVDGVEVHNAKTKPREEQYNSTYRVVSVLTVLHQDWLNGKEYKCKVSNKALPAPIEKTISKAKGQPREPQVYTLPPSREEMTKNQVNLTCLVKGFYPSDIAVEWESNGQPENNYKTTPPVLDSDGSFFLNSTLTVDKSRWQQGNVFSCSVMHEALHNHYTQKSLSLSPGKGGGGSGGGGSGGGGSKLRKHNCLIRRCMPLHSRVPFP | 2 (100-1000) | No | –
ELA-L: Fc-linker fusion of elabela analogue KLRKHNCATRRCMPLHSRVPFP (L8A, Q9T) (protein) MRAWIFFLLCLAGRALADKTHTSPPSPAPEAAGGPSVFLFPPKPKDTLMISRTPEVTCVVVDVSHEDPEVKFNWYVDGVEVHNAKTKPREEQYNSTYRVVSVLTVLHQDWLNGKEYKCKVSNKALPAPIEKTISKAKGQPREPQVYTLPPSREEMTKNQVNLTCLVKGFYPSDIAVEWESNGQPENNYKTTPPVLDSDGSFFLNSTLTVDKSRWQQGNVFSCSVMHEALHNHYTQKSLSLSPGKGGGGSGGGGSGGGGSKLRKHNCATRRCMPLHSRVPFP | 2 (100-1000) | No | –
APL-A (Fc fusion) DKTHTSPPSPAPEAAGGPSVFLFPPKPKDTLMISRTPEVTCVVVDVSHEDPEVKFNWYVDGVEVHNAKTKPREEQYNSTYRVVSVLTVLHQDWLNGKEYKCKVSNKALPAPIEKTISKAKGQPREPQVYTLPPSREEMTKNQVNLTCLVKGFYPSDIAVEWESNGQPENNYKTTPPVLDSDGSFFLNSTLTVDKSRWQQGNVFSCSVMHEALHNHYTQKSLSLSPGKGGGGSGGGGSGGGGSQRPRLSHKGPMPF | – | – | 2
APL-B (Fc fusion) DKTHTSPPSPAPEAAGGPSVFLFPPKPKDTLMISRTPEVTCVVVDVSHEDPEVKFNWYVDGVEVHNAKTKPREEQYNSTYRVVSVLTVLHQDWLNGKEYKCKVSNKALPAPIEKTISKAKGQPREPQVYTLPPSREEMTKNQVNLTCLVKGFYPSDIAVEWESNGQPENNYKTTPPVLDSDGSFFLNSTLTVDKSRWQQGNVFSCSVMHEALHNHYTQKSLSLSPGKGGGGSGGGGSGGGGSQRPRLSHKGPMVF | – | – | 2
APL-E (Fc fusion) DKTHTSPPSPAPEAAGGPSVFLFPPKPKDTLMISRTPEVTCVVVDVSHEDPEVKFNWYVDGVEVHNAKTKPREEQYNSTYRVVSVLTVLHQDWLNGKEYKCKVSNKALPAPIEKTISKAKGQPREPQVYTLPPSREEMTKNQVNLTCLVKGFYPSDIAVEWESNGQPENNYKTTPPVLDSDGSFFLNSTLTVDKSRWQQGNVFSCSVMHEALHNHYTQKSLSLSPGKGGGGSGGGGSGGGGSQRPRLSHKGPHPF | – | – | 1
